Measured values reported in the DeepSol protein solubility set.

test: soluble on expression in E. coli; label from the status in PepcDB or PDB records

Sequence	soluble on expression in E. coli
MKNTQFALFMVLNGRATEALTFYQEAFAGDILFKITNQEFKERLNPSLTIPAGEEHWLSHSILQMDTFQLQLADNPLFAGMNTTPTEQLTLSLTVNSRHSAKTIFEKLTCHPESCIIQEPIENEFATFYAIVKDPFGLVTQITHEKQADPTKKGS	not soluble
MPDSTRQPSAPVRDRLQQYGLSETEAETYLAVVEKGPATARTVAETAGVSKSYVYDICDSLAVDGFVSVDDHRTPTVIRATPPSEAFSALKRELDTLEAAVQTRYEDTAAENNTFEVVKSRPTIVKRLEQHIEAADCEVILQIPARRLPDIRDPLRRARERGILVLLTLSSYDRATMELDLKEIANAVRIGLDGAPSLLATDQQRGFVSPSTMLSWDHDETNAITFTQEAVAAVLVGSYLGNYWPIGEEVLVSRPPSLPARYDMFRPVVFTTTLALRAGESVVADLYARPTGSDDDFEVISGEVVDVRQNLVAPHNSDFGFENSLVVDTGDSRITVGGYGAFLEDYEVKHTTLRRA	not soluble
RQLKVGQLVLSATPLPSLDEQARSLALVNLVRRKGIELLPWNPELRQWQARVDMLRQLDIQNGQAESKWPDLSDTSLLETLEK	not soluble
MKRKRIDIITLGCSKNLVDSEQLMRQLEEAGYSVTHDTENPEGEIAVINTCGFIGDAKEESINMILEFAERKEEGDLKKLFVMGCLSERYLQELAIEIPQVDKFYGKFNWKELLQDLGKTYHEELYIERTLTTPKHYAYLKISEGCDRKCSYCAIPIITGRHISKSMEEILDEVRYLVSQGVKEFQVIAQELTYYGVDLYKKQMLPELIERISEIPGVEWIRLHYAYPAHFPTDLFRVMRERDNVCKYMDIALQHISDNMLKLMRRQVSKEDTYKLIEQFRKEVPGIHLRTTLMVGHPGETEEDFEELKEFVRKARFDRMGAFAYSEEEGTYAAQQYEDSIPQEVKQARLDELMDIQQGISAELSAAKIGQQMKVIIDRIEGDYYIGRTEFDSPEVDPEVLISVSREELEVGQFYQVEVTDADDFDLYAKILNKYELEHHHHHH	soluble
MDVTATPRPHSNTQRPTQAYYVPRKLLECGRGPQSKPTTIDKNEKPIQTSAQQKQKPRPLMDTVISAPPSSLKEKSPQSNRQTKSNKKSSPPPRKSPVMTSSYQVQYPNSPRDLHLVSSTPSSRSSSSMSSNNGIVSPTLTVSSPRIVKGGPQKYSMSRPNAFAPMIAQSDEKECICDRKNTHVVCKRCGYECVGRVQVTCGKHPLILALNDLRECPNPVCHSVQLLECDELDDQDVHDDGVEQLLAEPIEKIDLLS	not soluble
MGFEDGFYTILHLAEGQHPNSKIPGGMYASSKDGKDVPVTAEPLGPQSKIRWWIARDPQAGDDMYTITEFRIDNSIPGQWSRSPVETEVPVYLYDRIKAEETGYTCAWRIQPADHGADGVYHIVGNVRIGSTDWADLREEYGEPQVYMKPVPVIPNVYIPRWFILGYEE	soluble
MGHHHHHHSHMEVVDPQQLGMFTEGELMSVGMDTFIHRIDSTEVIYQPRRKRAKLIGKYLMGDLLGEGSYGKVKEVLDSETLCRRAVKILKKKKLRRIPNGEANVKKEIQLLRRLRHKNVIQLVDVLYNEEKQKMYMVMEYCVCGMQEMLDSVPEKRFPVCQAHGYFCQLIDGLEYLHSQGIVHKDIKPG	not soluble
MAHHHHHHMEEAKIEAALHICNLLPAHVFEETIKLLSKVDQNLTNNILINKEGPIKIKFDSQQNKHYLGNMFNKEKDSYRSPYSNRYYPEHYPNGYIPSESLRMLEMLYNEMYDRYRKAYYIGGLSSVYLWPNPIEEGFVACFLIKKKENYDPCTSLTWEGTHLIQVSITHARVYYQISTTVNFFIKKKNEMTLSASINKALETPKKVSNVNLVKDKYFHMHNMGKMIEGIENSLRKSIEYIYLPKMNDILNSIRMDDSFASAWHNADRKAAQNLRTISSNIALSRGSVQDELRLKLKGRSFDAGAEYSLRT	not soluble
MSLQRPKVKGMDQTLATSRKTSNACNVLALCTRDNPAILTIAHRGFWTATAENSLASVRAAVAAGVEMIEIDTQATADGRLVVIHDETLDRTTTGKGTVSALPFEVVRAAKLKAGAGGDGADVTDECVPTLEEVLEEARGRITVNIDTKFTRDLPQVMETVLRLGVEDQVLVKTDVDPEAERFEVLGSHWFGRIPHMPMFPVRKGKFAEDLRRIEALKAPMIEVKFTDIADLAEGRAEMERQNIRLWINSLDVSHCLDFNDTRALSNPEAVWGALAEAGTGAIQTDEVEAFTAWLKAGAGETGRAWTREGHHHHHH	soluble
MSLTGSSSITRTCAVIFSSGFRFMDLLHAVPYAALWHGRFEHPVLRIACILSIAAGNRVPICFESITRRIRPMTLHRPAPHPVFSLAETSGPVLGDLPGWKLSDLYPSGDSPEYKRDLEKAASMAAAFEAKWKDKLESAAKAKGEDGIGAALKDYEALDDLIGRIGSFAGLTYFSDTSNPANGKLYGDAQAKLTEISAHLLFFTLELNRIDDAVMDACMANDAAAGHYRPWLVDLRKDKPHQLDDQLEQLFLEKSMTSAAAFNRLFDETMADLRFDIDGASLSLEVTLNMLQEPEPETRRKAAEALSATFKDNLRVFTLITNTLAKDKDISDRWRNFEDIADSRHLANRVERDVVDALAAAVKKAYPRLSHRYYAMKAKWLGMEQMNYWDRNAPLPDTSNTIIPWDEAKDTVLSAYGNFAPEMADIARRFFDEEWIDAPARPGKAPGAFAHPTVPSAHPYVLVNYLGKPRDVMTLAHELGHGVHQVLAGQQGALMCATPLTLAETASVFGEMLTFRKLLDDTKDIRERKAMLARKVEDMINTVVRQIAFYEFERKLHTARKEGELTSEQIGELWLSVQAESLGPAIRISEGYETWWTYIPHFIHSPFYVYAYAFGDCLVNSLYAVYQKAEAGFQEKYFELLKAGGTKHHSELLKPFGLDATDPSFWDKGLSMIEGLIDELEELDRKQAEGHHHHHH	soluble
MGSDKIHHHHHHMTNQIKIAVIGVGRWGVHLLRNFLAHPQVDVVAVVDPHPERLAAIKQQFNLDENVVLTTQWEDLKKVPGLTGVAIATPATTHYALIKDSLQQGYHVLAEKPLTLDPAECRELCQLAEQHHLILMVDHTYLFHPAVEQGQTVVQAGKLGDLRYGYATRTHLGPVRQDVDALWDLAIHDIAIFNAWLGQIPVKVQATGTVWLQGAGEQGSREAEGKKDTNFPLPQGLADLVWLTLTYPDGFQAYIHLCWLNPDKQRRLGIVGSLGSLIFDEMSRSSPLTLLHGEFEQQGNHFIPVNQKQVVLELEPGEPLGRVCSCFVDSILNNTPSEVSSGWVGTQLVEILAALTVSLEQGGQPVFLNNCSQV	not soluble
MGSDKIHHHHHHMHFIMMKLFRVVKRGYYISYAILDNSTIIRLDEDPIKALMRYSENKEVLGDRVTGIDYQSLLKSFQINDIRITKPIDPPEVWGSGISYEMARERYSEENVAKILGKTIYEKVYDAVRPEIFFKATPNRCVGHGEAIAVRSDSEWTLPEPELAVVLDSNGKILGYTIMDDVSARDLEAENPLYLPQSKIYAGCCAFGPVIVTSDEIKNPYSLDITLKIVREGRVFFEGSVNTNKMRRKIEEQIQYLIRDNPIPDGTILTTGTAIVPGRDKGLKDEDIVEITISNIGTLITPVKKRRKIT	not soluble
MGSDKIHHHHHHMSEKTLLELPKKFMEALMAPFIGREEEAKVITLALLSKEHVILIGEPGTAKSALARRAAELLNAKFFMYLLTKYTEPAELFGALDINALKDGQYKRITKDRLPESQIAFLDEIFNANSAILNALLSLLNERVIYDGYNVIKVPLRTLISASNRVPDEPELEALYDRLLLRHYARPVGEELWKQLLDATWEIEFTNRWAVKEPIMNIEHLDKLYSYLSQVDLSGVKNKLLKLYAMLEEKGIHLSDRRKGKVLKVVSAHAILNSRLKATEEDLIVLKYIAPREIDDFEKVAALLSEELKTPIKYMKELNEIYNNIKEAAKYVEAANESDPRLIELIRSLRATRDRIVALGKESGDEKVEEFSKEVLSEIDKLIEKVARKLGIYP	not soluble
MDLDADFLLLHLSDSALPTGAFAHSFGFETYMDAERITNAEEFQDWLKVLLKVQLTSSDALAMRMFYATPTVSELKRLDERLFAGTPAREIREANARMGTRMAEIVAETYSVPLIVEYLELIQHRELSGHPALALALATHSAGIDVDRAIHAHLTATVSSLIQNAVRGIPLGQMAGQRVMFAMREHIGAAVKRSANLDEIDFCSGDPGLDISQMVHETQRARLFMSLEHHHHHH	not soluble
MEKPSPTRRQTSSLSTISNGMTMTNDNRDTTNTNSGSTSSNNSQPSSSSTPPAASGPVTDRTKVNYVPKSDDPSSFQYYPDDPENPVNKYKFALKADSQYYDPCEESSKLSFQCLERNDYDRSKCQEYFDAYRECKKQWLTARRKNRQQWE	soluble
